We go through 125 sequences from the supplement of paper PMC9112550, “Optimization of the antimicrobial peptide Bac7 by deep mutational scanning” (BMC Biology, 2022).

The data set has as its system Escherichia coli TOP10. Description: shrunken log2 fold change of peptide-encoding DNA abundance (4.5 h post-induction vs induction); higher = less antimicrobial activity (less host growth inhibition). The following applies: time post-induction: 4.5 h; library: site-saturation at positions 5, 18, 19, 20.
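Also: peptides expressed intracellularly from a pBAD plasmid library in pooled LB shake-flask culture, induced with 0.3% L-arabinose, DNA abundance read by NGS, three biological replicates, DESeq2 with apeglm shrinkage.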

Consider RRIRKRPPRLPRPRPRPMGRPRP, for which the “shrunken log2 fold change” value is -0.0264.
For RRIRRRPPRLPRPRPRPTGYPRP the value was 0.246; for RRIRQRPPRLPRPRPRPFKRPRP, 0.0391.
Next, RRIRGRPPRLPRPRPRPHRTPRP: 0.271; RRIRCRPPRLPRPRPRPEPQPRP: 0.468; RRIRHRPPRLPRPRPRPNDEPRP: -0.0904.
In the case of RRIRVRPPRLPRPRPRPIDNPRP, the “shrunken log2 fold change” value was -0.447.
RRIRNRPPRLPRPRPRPKRAPRP: the “shrunken log2 fold change” value is 0.146.
Next, RRIRVRPPRLPRPRPRPKGIPRP: -0.115; RRIRHRPPRLPRPRPRPHLDPRP: -0.214; RRIRCRPPRLPRPRPRPPCHPRP: 0.3.
For RRIRQRPPRLPRPRPRPHFYPRP the value was -0.229.
For RRIRFRPPRLPRPRPRPIKGPRP the value was -0.248; for RRIRHRPPRLPRPRPRPCAQPRP, 0.000337.
RRIRERPPRLPRPRPRPWGDPRP: the “shrunken log2 fold change” value turned out to be 0.108.
For RRIRSRPPRLPRPRPRPFIWPRP the value was -0.297; for RRIRMRPPRLPRPRPRPCVFPRP, -0.065.
Next, RRIRQRPPRLPRPRPRPVFSPRP: -0.192; RRIRRRPPRLPRPRPRPYCNPRP: -0.834.
Next, RRIRFRPPRLPRPRPRPIETPRP: -0.186.
RRIRQRPPRLPRPRPRPCTLPRP: the “shrunken log2 fold change” value is -0.56.
For RRIRHRPPRLPRPRPRPRYKPRP the value was -0.424; for RRIRSRPPRLPRPRPRPCIVPRP, -1.05.
Next, RRIRCRPPRLPRPRPRPVKVPRP: -0.181; RRIRCRPPRLPRPRPRPVIQPRP: -0.468; RRIRIRPPRLPRPRPRPFFYPRP: -0.416.
Next, RRIRSRPPRLPRPRPRPSMPPRP: -0.706; RRIRRRPPRLPRPRPRPSKDPRP: 0.0136.
Turning to RRIRMRPPRLPRPRPRPSMSPRP, the “shrunken log2 fold change” value was -0.024.
Regarding RRIRIRPPRLPRPRPRPKFDPRP, the “shrunken log2 fold change” value is -0.18.
For RRIRHRPPRLPRPRPRPVNCPRP the value was 0.00367; for RRIRVRPPRLPRPRPRPYVNPRP, 0.0651.
On to RRIRTRPPRLPRPRPRPLNMPRP, for which the “shrunken log2 fold change” value is 0.00244.
Next, RRIRCRPPRLPRPRPRPVQLPRP: 0.0365; RRIRDRPPRLPRPRPRPNPNPRP: -0.136; RRIRARPPRLPRPRPRPASSPRP: 0.16.
Next, RRIRFRPPRLPRPRPRPFQIPRP: -0.0567.
For RRIRLRPPRLPRPRPRPVHIPRP the value was -0.182.
RRIRGRPPRLPRPRPRPHRWPRP: the “shrunken log2 fold change” value worked out at 0.252.
Next, RRIRYRPPRLPRPRPRPHDCPRP: -0.00448; RRIRGRPPRLPRPRPRPYFPPRP: -0.37.
For RRIRNRPPRLPRPRPRPIFWPRP the value was -0.162; for RRIRQRPPRLPRPRPRPFQGPRP, -0.0134.
For RRIRGRPPRLPRPRPRPCAEPRP the value was 1.91; for RRIRYRPPRLPRPRPRPQIAPRP, -0.242.
Take RRIRMRPPRLPRPRPRPFHHPRP: the “shrunken log2 fold change” value was -0.419.
For RRIRCRPPRLPRPRPRPVLCPRP the value was -0.112; for RRIRIRPPRLPRPRPRPGPMPRP, 0.0608; for RRIRWRPPRLPRPRPRPQRIPRP, 0.107.
For RRIRRRPPRLPRPRPRPKLLPRP the value was 0.178; for RRIRMRPPRLPRPRPRPKVAPRP, -0.0166; for RRIRNRPPRLPRPRPRPWAIPRP, -0.179.
On to RRIRPRPPRLPRPRPRPSMHPRP, for which the “shrunken log2 fold change” value is 0.828.
For RRIRGRPPRLPRPRPRPAWWPRP the value was 1.39; for RRIRPRPPRLPRPRPRPYGLPRP, -0.857.
Next, RRIRHRPPRLPRPRPRPETEPRP: 0.105.
Next, RRIRPRPPRLPRPRPRPGRGPRP: 0.611.
As to RRIRFRPPRLPRPRPRPCDVPRP, the “shrunken log2 fold change” value was determined as 0.0119.
For RRIRCRPPRLPRPRPRPFWKPRP the value was -0.271.
For RRIRTRPPRLPRPRPRPFVCPRP the value was -0.374; for RRIRLRPPRLPRPRPRPWVYPRP, 0.0113.
Next, RRIRKRPPRLPRPRPRPCADPRP: 0.006.
Turning to RRIRTRPPRLPRPRPRPMSDPRP, the “shrunken log2 fold change” value is -0.0819.
For RRIRGRPPRLPRPRPRPKNLPRP the value was 0.121; for RRIRARPPRLPRPRPRPIWHPRP, 0.331; for RRIRNRPPRLPRPRPRPTYGPRP, -0.0506.
For RRIRCRPPRLPRPRPRPWNWPRP the value was -0.0303; for RRIRPRPPRLPRPRPRPQPAPRP, 0.0892.
For RRIRQRPPRLPRPRPRPWVDPRP the value was 0.0234.
As to RRIRYRPPRLPRPRPRPFPAPRP, the “shrunken log2 fold change” value is -0.467.
RRIRFRPPRLPRPRPRPMNAPRP: the “shrunken log2 fold change” value is -0.054.
Next, RRIRPRPPRLPRPRPRPNMNPRP: -0.584; RRIRLRPPRLPRPRPRPQMLPRP: 0.0385; RRIRYRPPRLPRPRPRPKCNPRP: -0.533.
For RRIRQRPPRLPRPRPRPFANPRP the value was 0.0297; for RRIRQRPPRLPRPRPRPIHKPRP, -0.651; for RRIRVRPPRLPRPRPRPWSKPRP, -0.2.
RRIRRRPPRLPRPRPRPGNYPRP: the “shrunken log2 fold change” value is -0.0441.
For RRIRDRPPRLPRPRPRPFHEPRP the value was -0.048.
For RRIRSRPPRLPRPRPRPTWKPRP the value was 0.286.
For RRIRIRPPRLPRPRPRPFEHPRP the value was -0.321; for RRIRHRPPRLPRPRPRPDRDPRP, -0.0136.
For the sequence RRIRTRPPRLPRPRPRPITRPRP, the “shrunken log2 fold change” value is -0.0822.
RRIRQRPPRLPRPRPRPFVIPRP: the “shrunken log2 fold change” value was -0.131.
Next, RRIRHRPPRLPRPRPRPDISPRP: -0.278; RRIRMRPPRLPRPRPRPYIDPRP: -0.227; RRIRIRPPRLPRPRPRPLNRPRP: -0.476.
For RRIRKRPPRLPRPRPRPQTYPRP the value was -0.021; for RRIRHRPPRLPRPRPRPLWNPRP, -1.07.
Next, RRIRWRPPRLPRPRPRPCSTPRP: 0.137; RRIRERPPRLPRPRPRPNGHPRP: 0.0479; RRIRDRPPRLPRPRPRPMMWPRP: 0.156.
In the case of RRIRRRPPRLPRPRPRPCSWPRP, the “shrunken log2 fold change” value was -0.124.
With RRIRGRPPRLPRPRPRPGRTPRP, the “shrunken log2 fold change” value turned out to be 0.498.
Next, RRIRFRPPRLPRPRPRPNPYPRP: -0.238.
For RRIRRRPPRLPRPRPRPDYFPRP the value was -0.0877; for RRIRYRPPRLPRPRPRPVNNPRP, -1.68; for RRIRARPPRLPRPRPRPNKSPRP, -0.174.
Regarding RRIRMRPPRLPRPRPRPGQMPRP, the “shrunken log2 fold change” value stood at 0.123.
For RRIRCRPPRLPRPRPRPASMPRP, the “shrunken log2 fold change” value is -0.412.
For RRIRCRPPRLPRPRPRPEAPPRP the value was 0.755; for RRIRYRPPRLPRPRPRPNEPPRP, 0.00196.
Next, RRIRFRPPRLPRPRPRPMNMPRP: -0.546; RRIRDRPPRLPRPRPRPNWCPRP: 0.0171.
With RRIRWRPPRLPRPRPRPDWSPRP, the “shrunken log2 fold change” value is 0.0189.
For RRIRLRPPRLPRPRPRPVQLPRP the value was 0.0978; for RRIRARPPRLPRPRPRPDWSPRP, 0.048; for RRIRNRPPRLPRPRPRPFFQPRP, -0.427.
Next, RRIRGRPPRLPRPRPRPQVRPRP: 0.713; RRIRPRPPRLPRPRPRPVDIPRP: -0.288.
Consider RRIRERPPRLPRPRPRPMFWPRP, for which the “shrunken log2 fold change” value is 0.0831.
Next, RRIRGRPPRLPRPRPRPIQCPRP: 0.0816.
Next, RRIRERPPRLPRPRPRPRITPRP: -0.578.
For RRIRGRPPRLPRPRPRPVWQPRP the value was 0.174; for RRIRVRPPRLPRPRPRPNWNPRP, -0.318; for RRIRWRPPRLPRPRPRPCIMPRP, -0.339.
Regarding RRIRHRPPRLPRPRPRPHNRPRP, the “shrunken log2 fold change” value was -0.0976.
For RRIRCRPPRLPRPRPRPDQTPRP the value was -0.00778.
Next, RRIRGRPPRLPRPRPRPYCMPRP: -0.148.
Next, RRIRNRPPRLPRPRPRPKHCPRP: -0.111; RRIRCRPPRLPRPRPRPVPHPRP: 0.0468; RRIRVRPPRLPRPRPRPQSSPRP: -0.0172.
As to RRIRIRPPRLPRPRPRPALMPRP, the “shrunken log2 fold change” value was -0.028.
Consider RRIRTRPPRLPRPRPRPPIHPRP, for which the “shrunken log2 fold change” value was -0.323.
Next, RRIRQRPPRLPRPRPRPMWVPRP: 0.551.
